Laboratory results reported in US20060199768A1.

Target: RecA protein (E. coli)

RecA N-30 (peptide)
I50, ATPase activity of the RecA NPF: 600 µM
